The text below walks through data of publication PMC11897886 (Nucleic Acids Research, 2024).

Changes are numbered by the printed parent chain.

Experiment [1] concerns the target FITC-labeled Dcp2-UBM2 peptide (aa 694-718) (S. cerevisiae) (UniProt P53550). The experiment can be described thus: fluorescence polarisation.
For experiment [2], the target named is FITC-labeled Dcp2-UBM1 peptide (aa 456-479) (S. cerevisiae) (UniProt P53550). The experiment can be described thus: fluorescence polarisation.
Experiment [3] has as its target CBP-Upf1-CH-His (S. cerevisiae). Description: SDS-PAGE band identified by Western blotting and mass spectrometry.
In experiment [4] the target is T1, CBP-Upf1-CH-HD I693R (S. cerevisiae, UniProt P30771 54-851, I693R).
T1 sequence: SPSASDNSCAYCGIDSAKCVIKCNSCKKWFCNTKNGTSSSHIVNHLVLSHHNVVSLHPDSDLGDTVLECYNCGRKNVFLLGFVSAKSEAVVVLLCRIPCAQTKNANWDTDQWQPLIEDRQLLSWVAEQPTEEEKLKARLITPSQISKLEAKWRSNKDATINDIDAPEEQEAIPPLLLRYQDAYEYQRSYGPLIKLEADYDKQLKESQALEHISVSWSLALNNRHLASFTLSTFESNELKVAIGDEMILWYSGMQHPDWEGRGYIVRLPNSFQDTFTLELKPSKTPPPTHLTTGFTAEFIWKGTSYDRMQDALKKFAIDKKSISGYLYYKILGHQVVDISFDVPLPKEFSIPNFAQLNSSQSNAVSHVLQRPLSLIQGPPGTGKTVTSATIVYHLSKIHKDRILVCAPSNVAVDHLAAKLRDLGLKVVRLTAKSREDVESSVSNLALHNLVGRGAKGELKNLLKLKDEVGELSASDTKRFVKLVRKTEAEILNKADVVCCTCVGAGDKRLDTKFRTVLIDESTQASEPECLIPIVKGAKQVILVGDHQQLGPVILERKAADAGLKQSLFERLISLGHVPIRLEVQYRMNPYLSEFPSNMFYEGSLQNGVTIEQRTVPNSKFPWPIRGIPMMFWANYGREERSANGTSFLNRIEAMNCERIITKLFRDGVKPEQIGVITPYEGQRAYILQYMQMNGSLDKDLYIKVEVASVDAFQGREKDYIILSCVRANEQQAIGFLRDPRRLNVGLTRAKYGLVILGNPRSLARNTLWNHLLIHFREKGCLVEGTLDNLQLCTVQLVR
Description: pull-down.

Experiment [5] concerns the target CBP-Upf1-CH-His (S. cerevisiae). Description: fluorescence polarisation.
Experiment [6] has as its target T2, GST-Ebs1 (aa 1-591) (S. cerevisiae, UniProt Q03466 1-591).
T2 sequence: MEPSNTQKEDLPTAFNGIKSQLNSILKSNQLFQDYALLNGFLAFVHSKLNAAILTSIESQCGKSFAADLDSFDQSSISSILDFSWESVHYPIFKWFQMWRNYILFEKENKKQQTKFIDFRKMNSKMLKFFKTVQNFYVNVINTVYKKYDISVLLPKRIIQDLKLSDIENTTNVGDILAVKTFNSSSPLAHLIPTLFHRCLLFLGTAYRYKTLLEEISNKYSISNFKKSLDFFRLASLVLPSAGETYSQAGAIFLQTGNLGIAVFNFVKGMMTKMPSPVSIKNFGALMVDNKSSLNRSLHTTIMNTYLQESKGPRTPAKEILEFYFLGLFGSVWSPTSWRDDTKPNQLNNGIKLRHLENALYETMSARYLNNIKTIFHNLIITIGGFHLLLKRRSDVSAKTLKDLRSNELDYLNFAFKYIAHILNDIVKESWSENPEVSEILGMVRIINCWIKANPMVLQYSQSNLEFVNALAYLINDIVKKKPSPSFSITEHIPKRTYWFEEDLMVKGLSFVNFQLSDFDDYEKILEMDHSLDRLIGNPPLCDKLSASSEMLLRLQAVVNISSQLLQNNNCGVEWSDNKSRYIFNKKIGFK
Description: pull-down.

In experiment [7] the target is T3, CBP-Upf1-CH-HD (S. cerevisiae, UniProt P30771 54-851).
T3 sequence: T1 sequence with R640I
Description: native gel or EMSA.

Experiment [8] has as its target T4, CBP-Upf1-FL (S.c. Upf1 full-length) (S. cerevisiae, UniProt P30771 1-971).
T4 sequence: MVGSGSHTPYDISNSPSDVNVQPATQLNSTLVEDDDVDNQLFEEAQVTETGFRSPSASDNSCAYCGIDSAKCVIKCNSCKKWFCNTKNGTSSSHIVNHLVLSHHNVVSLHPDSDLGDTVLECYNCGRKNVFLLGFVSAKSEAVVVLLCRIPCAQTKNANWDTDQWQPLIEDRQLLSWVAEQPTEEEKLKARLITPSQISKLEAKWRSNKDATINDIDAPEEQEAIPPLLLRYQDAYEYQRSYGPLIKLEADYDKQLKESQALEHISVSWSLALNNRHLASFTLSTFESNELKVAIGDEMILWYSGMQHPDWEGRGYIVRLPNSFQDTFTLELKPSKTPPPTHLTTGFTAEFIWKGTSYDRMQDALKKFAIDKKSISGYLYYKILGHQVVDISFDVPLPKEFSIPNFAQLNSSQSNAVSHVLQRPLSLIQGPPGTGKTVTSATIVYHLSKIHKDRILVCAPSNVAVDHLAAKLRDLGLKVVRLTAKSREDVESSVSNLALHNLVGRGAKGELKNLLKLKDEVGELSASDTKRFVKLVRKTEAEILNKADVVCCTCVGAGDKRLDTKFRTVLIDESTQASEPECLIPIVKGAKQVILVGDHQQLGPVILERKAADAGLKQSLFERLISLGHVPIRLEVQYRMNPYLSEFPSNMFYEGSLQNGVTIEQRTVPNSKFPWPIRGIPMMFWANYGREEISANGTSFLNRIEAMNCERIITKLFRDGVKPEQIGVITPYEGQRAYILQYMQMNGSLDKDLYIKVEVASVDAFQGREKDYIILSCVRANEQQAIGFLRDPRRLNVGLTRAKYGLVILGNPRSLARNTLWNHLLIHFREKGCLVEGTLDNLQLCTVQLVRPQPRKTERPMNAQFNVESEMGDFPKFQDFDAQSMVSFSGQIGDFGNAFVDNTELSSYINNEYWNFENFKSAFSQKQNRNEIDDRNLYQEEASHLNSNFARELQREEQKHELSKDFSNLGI
Description: pull-down.

FITC-labeled Dcp2-UBM1 peptide (aa 456-479) (S. cerevisiae), sequence (P53550 456-479): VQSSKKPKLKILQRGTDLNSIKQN
FITC-labeled Dcp2-UBM2 peptide (aa 694-718) (S. cerevisiae), sequence (P53550 694-718): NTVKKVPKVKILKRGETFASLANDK

Regarding CBP-Upf1-CH-His (domain or fragment), the dissociation constant (Kd) in experiment [1] came out at 25.1 µM; in experiment [2], 60.1 µM. The molecule further gave a stoichiometry N in experiment [3] of 2.

B1: Upf2 (933-1089)-His (domain or fragment)
chain: SDSDLEYGGDLDADRDIEMKRMYEEYERKLKDEEERKAEEELERQFQKMMQESIDARKSEKVVASKIPVISKPVSVQKPLLLKKSEEPSSSKETYEELSKPKKIAFTFLTKSGKKTQSRILQLPTDVKFVSDVLEEEEKLKTERNKIKKIVLKRSFD
B1: in experiment [4], the binding result is recorded as “binds”. For the same molecule, the Kd in experiment [5] was found to be 0.43 µM.

B2: CBP-Upf1-Ct (domain or fragment)
chain: PQPRKTERPMNAQFNVESEMGDFPKFQDFDAQSMVSFSGQIGDFGNAFVDNTELSSYINNEYWNFENFKSAFSQKQNRNEIDDRNLYQEEASHLNSNFARELQREEQKHELSKDFSNLGI
Turning to B2, the binding result in experiment [6] is listed as “binds”.

B3: Nmd4-His (C-terminal His-tagged Nmd4) (natural protein)
chain: MTQYNFIIDASAFEKGLGNIKRWCSDCTEAVTLNFYIPTFTLNELDFLQQRRKSFAARESLKFIDRLDDSKFANLKVFIEFPEVLDIILWSDVMEHNDSSGKINIAKLPKRLKNLLKSCIYKCYLEGNEGLHWFLISEDPQIREMAMQCNIPSCSIVDVDSILSKDMNDKSFRESEKFNNMMLKNGTKEESENGREIIRTNFNKTVYASRGTGELWSP
B3: the binding result in experiment [7] and in experiment [8] was “binds” in each case.
